How the values were obtained:
PDGF-BB [1] = biological target: T1, PDGF-BB (UniProt P01127 P01127:82-190); experiment: fluorescence thermal melt in solution; Tm about 55 C unbound to about 65 C bound; 1x PBS, 1 mM MgCl2, 0.1 mg/ml BSA; conditions: chain copies: 2 (homodimer, inferred); label: 5' fluorescein, 3' Black Hole Quencher 1
Description: In one representative experiment, aptamer comprising a competent binding state and a dye pair (fluoresceine and black hole quencher) was measured for their persistence in the changed environment of temperature as described herein. […] PDGF-BB, bovine serum albumine (BSA), magnesium chrolide, and phosphate buffered saline (PBS) all other buffers were ordered from Sigma-Millipore. 41T aptamer at a concentration of either 316 nM, or 100 nM, or 31.6 nM, or 10 nM were mixed with variable concentrations PDGF-BB (from […] dilution factor) in 1× PBS containing 1 mM MgCl₂, and 0.1 mg/ml BSA on white 384 well PCR plate (BioRad) and subjected to the following thermal protocol on BioRad CFX384 qPCR instrument: lid at 95° C., melting curve step from 30° C. to 80° C. with images (FAM/SYBR channel) every 0.5° C., 10 seconds per step. FIG. 5 presents melting curves (left panels) and the first derivative (right panels) of thermal titration experiments. To estimate the relative populations of free aptamers and aptamers bound to the target (% bound), the areas under the curve of the first derivative (dRFU/dT) were integrated for both unbound (left peak with Tₘ˜55° C.) and bound (right peak with Tₘ˜65° C.) peaks. % bound as a function of the target concentration is presented as a dose response in FIG. 6.

PDGF-AA = PDGF-AA (UniProt P04085 P04085:87-211); experiment: surface thermal melt, 75-300 nM PDGF-AA; no binding and no dose response; 0.75 mg/mL HSA, 40% DMSO; conditions: tags: R&D Systems; chain copies: 2 (homodimer, inferred); label: 3' Cy3
Description: (§1) The solid support consisted of coated ITO glass slides functionalized with azido groups (Sikemia, Grabels, France) to form a covalent bond between the DBCO-labeled aptamer and the surface. PDGF-BB and PDGF-AA were obtained from R&D Systems (Minneapolis, USA). Human serum albumine (HSA), phosphate buffered saline (PBS) and all other reagents were ordered from Sigma-Millipore. The aptamer was covalently linked to the solid support by spotting 4.5 μL of the 0.25 uM aptamer solution in 1× PBS buffer. The spots were incubated for 10 minutes to allow for surface immobilization and washed with 1× PBS buffer. Solutions with a variable amount of PDGF-BB or PDGF-AA (630 nM to 2 nM 3.16× dilution series or 300 nM to 75 nM 2× dilution series, respectively) and containing 0.75 mg/mL. HSA, 40% DMSO (v/v) were applied to the surface coated with the aptamers and incubated for 5 minutes at room temperature. The temperature was increased to 45° C. by placing the slide on a heating element. The change in fluorescence intensity of the modified aptamer was as a function of temperature was monitored by fluorescence microscope coupled to a CMOS sensor. FIGS. 9A and 10 presents normalized first derivative of the melting curves for PDGF-BB or PDGF-AA titration experiments, respectively. […]

PDGF-BB [2] = biological target: T1, PDGF-BB; experiment: surface thermal melt; Tm about 32 C unbound to about 42 C bound; 0.75 mg/mL HSA, 40% DMSO; also bound peak about 55 C with 100 nM in human plasma without DMSO; conditions: chain copies: 2 (homodimer, inferred); label: 3' Cy3
Description: as §1, with “PDGF-BB” for “The solid support consisted of coated ITO glass slides functionalized with azido groups (Sikemia, Grabels, France) to form a covalent bond between the DBCO-labeled aptamer and the surface. PDGF-BB”

T1 sequence (P01127 82-190, one chain of several): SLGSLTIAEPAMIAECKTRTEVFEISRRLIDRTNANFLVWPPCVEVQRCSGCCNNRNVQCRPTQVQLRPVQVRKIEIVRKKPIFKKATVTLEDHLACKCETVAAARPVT

| Binder | binding result (PDGF-BB [1]) | binding result (PDGF-AA) | binding result (PDGF-BB [2]) |
| --- | --- | --- | --- |
| TACTCAGGGCACTGCAAGCAATTGTGGTCCCAATGGGCTGAGTA (ssDNA) [41T aptamer (solution, FIG. 4A)] | binds |  |  |
| TTTTTTACTCAGGGCACTGCAAGCAATTGTGGTCCCAATGGGCTGAGTA (ssDNA, 5' DBCO-TEG via five-thymidine linker, thymine-linked Black Hole Quencher 2) [41T aptamer (surface-immobilized, FIG. 4B)] |  | no binding | binds |

— patent US20250314646, “SYSTEMS AND METHODS FOR ANALYTE DETECTION IN BIOLOGICAL SOLUTIONS” (eGlint, Inc., published 2025)
